Measurements: paper PMC4039619 (Matrix biology : journal of the International Society for …, 2014)

Target: human recombinant IR-A extracellular domain (Met 1-Lys 944) with C-terminal polyhistidine tag (human, UniProt P06213-2 28-944)
Assay: ELISA

Kd: 7.8 nM
B1: human recombinant decorin protein core (natural protein, UniProt P07585 31-359, looked up)
chain: DEASGIGPEVPDDRDFEPSLGPVCPFRCQCHLRVVQCSDLGLDKVPKDLPPDTTLLDLQNNKITEIKDGDFKNLKNLHALILVNNKISKVSPGAFTPLVKLERLYLSKNQLKELPEKMPKTLQELRAHENEITKVRKVTFNGLNQMIVIELGTNPLKSSGIENGAFQGMKKLSYIRIADTNITSIPQGLPPSLTELHLDGNKISRVDAASLKGLNNLAKLGLSFNSISAVDNGSLANTPHLRELHLDNNKLTRVPGGLAEHKYIQVVYLHNNNISVVGSSDFCPPGHNTKKASYSGVSLFSNPVQYWEIQPSTFRCVYVRSAIQLGNYK
